# Assay results: patent US20260167699A1 (Chugai, published 2026)
# T1: FcγRIIb extracellular domain, C-terminal His tag (human, UniProt P31994 43-217)
# T1 construct: extracellular domain; also called 2b
# T1 sequence: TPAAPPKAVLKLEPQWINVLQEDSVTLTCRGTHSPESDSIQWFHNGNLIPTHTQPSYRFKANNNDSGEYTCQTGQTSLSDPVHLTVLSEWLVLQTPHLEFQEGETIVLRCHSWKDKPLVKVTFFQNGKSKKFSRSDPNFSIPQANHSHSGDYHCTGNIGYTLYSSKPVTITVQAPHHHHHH
# T2: FcγRIIa(R) extracellular domain, C-terminal His tag (human, UniProt P12318 34-217)
# T2 construct: extracellular domain; also called 2aR
# T2 sequence: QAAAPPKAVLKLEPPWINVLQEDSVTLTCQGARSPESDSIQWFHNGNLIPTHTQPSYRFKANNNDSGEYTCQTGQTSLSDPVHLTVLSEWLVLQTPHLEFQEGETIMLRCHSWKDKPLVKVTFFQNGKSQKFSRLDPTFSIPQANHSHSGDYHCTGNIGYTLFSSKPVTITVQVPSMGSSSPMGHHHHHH
# T3: FcγRIIa(H) extracellular domain, C-terminal His tag (human, UniProt P12318 34-217)
# T3 construct: extracellular domain; also called 2aH
# T3 sequence: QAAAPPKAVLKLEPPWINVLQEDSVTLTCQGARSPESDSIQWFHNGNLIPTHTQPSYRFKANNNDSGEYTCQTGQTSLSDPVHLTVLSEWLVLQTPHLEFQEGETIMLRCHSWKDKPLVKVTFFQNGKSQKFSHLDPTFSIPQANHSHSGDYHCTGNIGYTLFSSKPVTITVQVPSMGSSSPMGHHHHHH
# Key:
# Assay in all cases: SPR; He Ab vs HeCon Ab (GpH7-A5/GpH7-B3/GpL16-k0)=100;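 also: surface plasmon resonance at 25 °C with the test antibody captured on a sensor chip via antigenic peptide, protein L or protein A/G and FcγR flowed over as analyte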
# [1] = target: T4, FcγRIIIa extracellular domain, C-terminal His tag (human, UniProt P08637 17-208)
# T4 construct: extracellular domain; also called 3a
# T4 sequence (P08637 other isoform, or with tags, fused parts or gaps): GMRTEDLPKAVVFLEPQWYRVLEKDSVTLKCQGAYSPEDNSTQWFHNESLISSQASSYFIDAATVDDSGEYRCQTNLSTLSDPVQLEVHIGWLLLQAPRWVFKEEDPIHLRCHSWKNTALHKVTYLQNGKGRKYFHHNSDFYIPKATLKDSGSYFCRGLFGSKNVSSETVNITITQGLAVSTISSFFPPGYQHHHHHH
# [2] = target: T5, FcγRIa extracellular domain, C-terminal His tag (human, UniProt P12314 16-292)
# T5 construct: extracellular domain; also called 1a
# T5 sequence (P12314 other isoform, or with tags, fused parts or gaps): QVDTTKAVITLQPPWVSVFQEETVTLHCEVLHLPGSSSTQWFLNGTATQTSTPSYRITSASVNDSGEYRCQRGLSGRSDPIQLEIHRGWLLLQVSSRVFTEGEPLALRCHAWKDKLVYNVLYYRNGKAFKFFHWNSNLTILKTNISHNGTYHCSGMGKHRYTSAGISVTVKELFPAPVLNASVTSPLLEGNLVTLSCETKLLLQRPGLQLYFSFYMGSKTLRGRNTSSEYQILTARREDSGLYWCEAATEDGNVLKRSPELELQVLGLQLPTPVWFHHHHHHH
# [3] = target: T1, FcγRIIb extracellular domain, …
# [4] = target: T2, FcγRIIa(R) extracellular domain, …
# [5] = target: T3, FcγRIIa(H) extracellular domain, …
Binder,He/Con 3a [1],He/Con 1a [2],He/Con 2b [3],He/Con 2aR [4],He/Con 2aH [5]
"GpH7-A5/GpH7-B3 variant Q295_05P/GpL16-k0 (antibody, human IgG1, kappa, heterodimerized IgG1, one H chain mutated; also called He Ab; copies: 1 + 1 + 2) heavy 1: not shown heavy 2: not shown light: DIVMTQSPLSLPVTPGEPASISCQASESLVHSNRNTYLHWYLQKPGQSPQLLIYKVSNRFSGVPDRFSGSGSGTDFTLKISRVEAEDVGVYYCSQNTHVPPTFGQGTKVEIERTVAAPSVFIFPPSDEQLKSGTASVVCLLNNFYPREAKVQWKVDNALQSGNSQESVTEQDSKDSTYSLSSTLTLSKADYEKHKVYACEVTHQGLSSPVTKSFNRGEC",74.4%,102%,75.7%,86.6%,118%
"GpH7-A5/GpH7-B3 variant Q295_08L/GpL16-k0 (antibody, human IgG1, kappa, heterodimerized IgG1, one H chain mutated; also called He Ab; copies: 1 + 1 + 2) heavy 1: not shown heavy 2: not shown light: DIVMTQSPLSLPVTPGEPASISCQASESLVHSNRNTYLHWYLQKPGQSPQLLIYKVSNRFSGVPDRFSGSGSGTDFTLKISRVEAEDVGVYYCSQNTHVPPTFGQGTKVEIERTVAAPSVFIFPPSDEQLKSGTASVVCLLNNFYPREAKVQWKVDNALQSGNSQESVTEQDSKDSTYSLSSTLTLSKADYEKHKVYACEVTHQGLSSPVTKSFNRGEC",120%,103%,134%,118%,128%
"GpH7-A5/GpH7-B3 variant Q295_09D/GpL16-k0 (antibody, human IgG1, kappa, heterodimerized IgG1, one H chain mutated; also called He Ab; copies: 1 + 1 + 2) heavy 1: not shown heavy 2: not shown light: DIVMTQSPLSLPVTPGEPASISCQASESLVHSNRNTYLHWYLQKPGQSPQLLIYKVSNRFSGVPDRFSGSGSGTDFTLKISRVEAEDVGVYYCSQNTHVPPTFGQGTKVEIERTVAAPSVFIFPPSDEQLKSGTASVVCLLNNFYPREAKVQWKVDNALQSGNSQESVTEQDSKDSTYSLSSTLTLSKADYEKHKVYACEVTHQGLSSPVTKSFNRGEC",85.6%,98.5%,68.1%,68.7%,62.6%
"GpH7-A5/GpH7-B3 variant Q295_15Y/GpL16-k0 (antibody, human IgG1, kappa, heterodimerized IgG1, one H chain mutated; also called He Ab; copies: 1 + 1 + 2) heavy 1: not shown heavy 2: not shown light: DIVMTQSPLSLPVTPGEPASISCQASESLVHSNRNTYLHWYLQKPGQSPQLLIYKVSNRFSGVPDRFSGSGSGTDFTLKISRVEAEDVGVYYCSQNTHVPPTFGQGTKVEIERTVAAPSVFIFPPSDEQLKSGTASVVCLLNNFYPREAKVQWKVDNALQSGNSQESVTEQDSKDSTYSLSSTLTLSKADYEKHKVYACEVTHQGLSSPVTKSFNRGEC",81.5%,100%,73.3%,82%,89.3%
"GpH7-A5/GpH7-B3 variant Q295_07I/GpL16-k0 (antibody, human IgG1, kappa, heterodimerized IgG1, one H chain mutated; also called He Ab; copies: 1 + 1 + 2) heavy 1: not shown heavy 2: not shown light: DIVMTQSPLSLPVTPGEPASISCQASESLVHSNRNTYLHWYLQKPGQSPQLLIYKVSNRFSGVPDRFSGSGSGTDFTLKISRVEAEDVGVYYCSQNTHVPPTFGQGTKVEIERTVAAPSVFIFPPSDEQLKSGTASVVCLLNNFYPREAKVQWKVDNALQSGNSQESVTEQDSKDSTYSLSSTLTLSKADYEKHKVYACEVTHQGLSSPVTKSFNRGEC",101%,101%,94.5%,97.3%,117%
"GpH7-A5/GpH7-B3 variant Q295_10E/GpL16-k0 (antibody, human IgG1, kappa, heterodimerized IgG1, one H chain mutated; also called He Ab; copies: 1 + 1 + 2) heavy 1: not shown heavy 2: not shown light: DIVMTQSPLSLPVTPGEPASISCQASESLVHSNRNTYLHWYLQKPGQSPQLLIYKVSNRFSGVPDRFSGSGSGTDFTLKISRVEAEDVGVYYCSQNTHVPPTFGQGTKVEIERTVAAPSVFIFPPSDEQLKSGTASVVCLLNNFYPREAKVQWKVDNALQSGNSQESVTEQDSKDSTYSLSSTLTLSKADYEKHKVYACEVTHQGLSSPVTKSFNRGEC",105%,101%,106%,101%,112%
"GpH7-A5/GpH7-B3 variant Q295_13S/GpL16-k0 (antibody, human IgG1, kappa, heterodimerized IgG1, one H chain mutated; also called He Ab; copies: 1 + 1 + 2) heavy 1: not shown heavy 2: not shown light: DIVMTQSPLSLPVTPGEPASISCQASESLVHSNRNTYLHWYLQKPGQSPQLLIYKVSNRFSGVPDRFSGSGSGTDFTLKISRVEAEDVGVYYCSQNTHVPPTFGQGTKVEIERTVAAPSVFIFPPSDEQLKSGTASVVCLLNNFYPREAKVQWKVDNALQSGNSQESVTEQDSKDSTYSLSSTLTLSKADYEKHKVYACEVTHQGLSSPVTKSFNRGEC",90.4%,100%,63.8%,73%,79.5%
"GpH7-A5/GpH7-B3 variant Q295_11K/GpL16-k0 (antibody, human IgG1, kappa, heterodimerized IgG1, one H chain mutated; also called He Ab; copies: 1 + 1 + 2) heavy 1: not shown heavy 2: not shown light: DIVMTQSPLSLPVTPGEPASISCQASESLVHSNRNTYLHWYLQKPGQSPQLLIYKVSNRFSGVPDRFSGSGSGTDFTLKISRVEAEDVGVYYCSQNTHVPPTFGQGTKVEIERTVAAPSVFIFPPSDEQLKSGTASVVCLLNNFYPREAKVQWKVDNALQSGNSQESVTEQDSKDSTYSLSSTLTLSKADYEKHKVYACEVTHQGLSSPVTKSFNRGEC",81.8%,99.7%,79%,88.1%,102%
"GpH7-A5/GpH7-B3 variant Q295_06M/GpL16-k0 (antibody, human IgG1, kappa, heterodimerized IgG1, one H chain mutated; also called He Ab; copies: 1 + 1 + 2) heavy 1: not shown heavy 2: not shown light: DIVMTQSPLSLPVTPGEPASISCQASESLVHSNRNTYLHWYLQKPGQSPQLLIYKVSNRFSGVPDRFSGSGSGTDFTLKISRVEAEDVGVYYCSQNTHVPPTFGQGTKVEIERTVAAPSVFIFPPSDEQLKSGTASVVCLLNNFYPREAKVQWKVDNALQSGNSQESVTEQDSKDSTYSLSSTLTLSKADYEKHKVYACEVTHQGLSSPVTKSFNRGEC",100%,102%,101%,101%,111%
"GpH7-A5/GpH7-B3 variant Q295_14T/GpL16-k0 (antibody, human IgG1, kappa, heterodimerized IgG1, one H chain mutated; also called He Ab; copies: 1 + 1 + 2) heavy 1: not shown heavy 2: not shown light: DIVMTQSPLSLPVTPGEPASISCQASESLVHSNRNTYLHWYLQKPGQSPQLLIYKVSNRFSGVPDRFSGSGSGTDFTLKISRVEAEDVGVYYCSQNTHVPPTFGQGTKVEIERTVAAPSVFIFPPSDEQLKSGTASVVCLLNNFYPREAKVQWKVDNALQSGNSQESVTEQDSKDSTYSLSSTLTLSKADYEKHKVYACEVTHQGLSSPVTKSFNRGEC",120%,101%,74.9%,79.2%,86.2%

# Continued, values first:
He/Con 3a [1],He/Con 1a [2],He/Con 2b [3],He/Con 2aR [4],He/Con 2aH [5],Binder
151%,103%,74.4%,87.2%,74.3%,"GpH7-A5/GpH7-B3 variant S298_02A/GpL16-k0 (antibody, human IgG1, kappa, heterodimerized IgG1, one H chain mutated; also called He Ab; copies: 1 + 1 + 2) heavy 1: not shown heavy 2: not shown light: DIVMTQSPLSLPVTPGEPASISCQASESLVHSNRNTYLHWYLQKPGQSPQLLIYKVSNRFSGVPDRFSGSGSGTDFTLKISRVEAEDVGVYYCSQNTHVPPTFGQGTKVEIERTVAAPSVFIFPPSDEQLKSGTASVVCLLNNFYPREAKVQWKVDNALQSGNSQESVTEQDSKDSTYSLSSTLTLSKADYEKHKVYACEVTHQGLSSPVTKSFNRGEC"
103%,106%,65.4%,82.5%,83.2%,"GpH7-A5/GpH7-B3 variant S298_03V/GpL16-k0 (antibody, human IgG1, kappa, heterodimerized IgG1, one H chain mutated; also called He Ab; copies: 1 + 1 + 2) heavy 1: not shown heavy 2: not shown light: DIVMTQSPLSLPVTPGEPASISCQASESLVHSNRNTYLHWYLQKPGQSPQLLIYKVSNRFSGVPDRFSGSGSGTDFTLKISRVEAEDVGVYYCSQNTHVPPTFGQGTKVEIERTVAAPSVFIFPPSDEQLKSGTASVVCLLNNFYPREAKVQWKVDNALQSGNSQESVTEQDSKDSTYSLSSTLTLSKADYEKHKVYACEVTHQGLSSPVTKSFNRGEC"
85.7%,101%,72.8%,81.7%,87.8%,"GpH7-A5/GpH7-B3 variant Q295_18N/GpL16-k0 (antibody, human IgG1, kappa, heterodimerized IgG1, one H chain mutated; also called He Ab; copies: 1 + 1 + 2) heavy 1: not shown heavy 2: not shown light: DIVMTQSPLSLPVTPGEPASISCQASESLVHSNRNTYLHWYLQKPGQSPQLLIYKVSNRFSGVPDRFSGSGSGTDFTLKISRVEAEDVGVYYCSQNTHVPPTFGQGTKVEIERTVAAPSVFIFPPSDEQLKSGTASVVCLLNNFYPREAKVQWKVDNALQSGNSQESVTEQDSKDSTYSLSSTLTLSKADYEKHKVYACEVTHQGLSSPVTKSFNRGEC"
74.9%,100%,81.2%,94.5%,71.4%,"GpH7-A5/GpH7-B3 variant S298_01G/GpL16-k0 (antibody, human IgG1, kappa, heterodimerized IgG1, one H chain mutated; also called He Ab; copies: 1 + 1 + 2) heavy 1: not shown heavy 2: not shown light: DIVMTQSPLSLPVTPGEPASISCQASESLVHSNRNTYLHWYLQKPGQSPQLLIYKVSNRFSGVPDRFSGSGSGTDFTLKISRVEAEDVGVYYCSQNTHVPPTFGQGTKVEIERTVAAPSVFIFPPSDEQLKSGTASVVCLLNNFYPREAKVQWKVDNALQSGNSQESVTEQDSKDSTYSLSSTLTLSKADYEKHKVYACEVTHQGLSSPVTKSFNRGEC"
80.2%,101%,70.3%,80.5%,90.1%,"GpH7-A5/GpH7-B3 variant Q295_16H/GpL16-k0 (antibody, human IgG1, kappa, heterodimerized IgG1, one H chain mutated; also called He Ab; copies: 1 + 1 + 2) heavy 1: not shown heavy 2: not shown light: DIVMTQSPLSLPVTPGEPASISCQASESLVHSNRNTYLHWYLQKPGQSPQLLIYKVSNRFSGVPDRFSGSGSGTDFTLKISRVEAEDVGVYYCSQNTHVPPTFGQGTKVEIERTVAAPSVFIFPPSDEQLKSGTASVVCLLNNFYPREAKVQWKVDNALQSGNSQESVTEQDSKDSTYSLSSTLTLSKADYEKHKVYACEVTHQGLSSPVTKSFNRGEC"
